Results as given in IntAct's records for PubMed 22792074.

B1: Fanconi anemia group J protein (Homo sapiens), Q9BX63 (parent)
chain: MSSMWSEYTIGGVKIYFPYKAYPSQLAMMNSILRGLNSKQHCLLESPTGSGKSLALLCSALAWQQSLSGKPADEGVSEKAEVQLSCCCACHSKDFTNNDMNQGTSRHFNYPSTPPSERNGTSSTCQDSPEKTTLAAKLSAKKQASIYRDENDDFQVEKKRIRPLETTQQIRKRHCFGTEVHNLDAKVDSGKTVKLNSPLEKINSFSPQKPPGHCSRCCCSTKQGNSQESSNTIKKDHTGKSKIPKIYFGTRTHKQIAQITRELRRTAYSGVPMTILSSRDHTCVHPEVVGNFNRNEKCMELLDGKNGKSCYFYHGVHKISDQHTLQTFQGMCKAWDIEELVSLGKKLKACPYYTARELIQDADIIFCPYNYLLDAQIRESMDLNLKEQVVILDEAHNIEDCARESASYSVTEVQLRFARDELDSMVNNNIRKKDHEPLRAVCCSLINWLEANAEYLVERDYESACKIWSGNEMLLTLHKMGITTATFPILQGHFSAVLQKEEKISPIYGKEEAREVPVISASTQIMLKGLFMVLDYLFRQNSRFADDYKIAIQQTYSWTNQIDISDKNGLLVLPKNKKRSRQKTAVHVLNFWCLNPAVAFSDINGKVQTIVLTSGTLSPMKSFSSELGVTFTIQLEANHIIKNSQVWVGTIGSGPKGRNLCATFQNTETFEFQDEVGALLLSVCQTVSQGILCFLPSYKLLEKLKERWLSTGLWHNLELVKTVIVEPQGGEKTNFDELLQVYYDAIKYKGEKDGALLVAVCRGKVSEGLDFSDDNARAVITIGIPFPNVKDLQVELKRQYNDHHSKLRGLLPGRQWYEIQAYRALNQALGRCIRHRNDWGALILVDDRFRNNPSRYISGLSKWVRQQIQHHSTFESALESLAEFSKKHQKVLNVSIKDRTNIQDNESTLEVTSLKYSTSPYLLEAASHLSPENFVEDEAKICVQELQCPKIITKNSPLPSSIISRKEKNDPVFLEEAGKAEKIVISRSTSPTFNKQTKRVSWSSFNSLGQYFTGKIPKATPELGSSENSASSPPRFKTEKMESKTVLPFTDKCESSNLTVNTSFGSCPQSETIISSLKIDATLTRKNHSEHPLCSEEALDPDIELSLVSEEDKQSTSNRDFETEAEDESIYFTPELYDPEDTDEEKNDLAETDRGNRLANNSDCILAKDLFEIRTIKEVDSAREVKAEDCIDTKLNGILHIEESKIDDIDGNVKTTWINELELGKTHEIEIKNFKPSPSKNKGMFPGFK

Variants of: B1
Conditions: with brca1_human BRCA1, P38398
brca1_human BRCA1, P38398, sequence (P38398 whole entry, looked up): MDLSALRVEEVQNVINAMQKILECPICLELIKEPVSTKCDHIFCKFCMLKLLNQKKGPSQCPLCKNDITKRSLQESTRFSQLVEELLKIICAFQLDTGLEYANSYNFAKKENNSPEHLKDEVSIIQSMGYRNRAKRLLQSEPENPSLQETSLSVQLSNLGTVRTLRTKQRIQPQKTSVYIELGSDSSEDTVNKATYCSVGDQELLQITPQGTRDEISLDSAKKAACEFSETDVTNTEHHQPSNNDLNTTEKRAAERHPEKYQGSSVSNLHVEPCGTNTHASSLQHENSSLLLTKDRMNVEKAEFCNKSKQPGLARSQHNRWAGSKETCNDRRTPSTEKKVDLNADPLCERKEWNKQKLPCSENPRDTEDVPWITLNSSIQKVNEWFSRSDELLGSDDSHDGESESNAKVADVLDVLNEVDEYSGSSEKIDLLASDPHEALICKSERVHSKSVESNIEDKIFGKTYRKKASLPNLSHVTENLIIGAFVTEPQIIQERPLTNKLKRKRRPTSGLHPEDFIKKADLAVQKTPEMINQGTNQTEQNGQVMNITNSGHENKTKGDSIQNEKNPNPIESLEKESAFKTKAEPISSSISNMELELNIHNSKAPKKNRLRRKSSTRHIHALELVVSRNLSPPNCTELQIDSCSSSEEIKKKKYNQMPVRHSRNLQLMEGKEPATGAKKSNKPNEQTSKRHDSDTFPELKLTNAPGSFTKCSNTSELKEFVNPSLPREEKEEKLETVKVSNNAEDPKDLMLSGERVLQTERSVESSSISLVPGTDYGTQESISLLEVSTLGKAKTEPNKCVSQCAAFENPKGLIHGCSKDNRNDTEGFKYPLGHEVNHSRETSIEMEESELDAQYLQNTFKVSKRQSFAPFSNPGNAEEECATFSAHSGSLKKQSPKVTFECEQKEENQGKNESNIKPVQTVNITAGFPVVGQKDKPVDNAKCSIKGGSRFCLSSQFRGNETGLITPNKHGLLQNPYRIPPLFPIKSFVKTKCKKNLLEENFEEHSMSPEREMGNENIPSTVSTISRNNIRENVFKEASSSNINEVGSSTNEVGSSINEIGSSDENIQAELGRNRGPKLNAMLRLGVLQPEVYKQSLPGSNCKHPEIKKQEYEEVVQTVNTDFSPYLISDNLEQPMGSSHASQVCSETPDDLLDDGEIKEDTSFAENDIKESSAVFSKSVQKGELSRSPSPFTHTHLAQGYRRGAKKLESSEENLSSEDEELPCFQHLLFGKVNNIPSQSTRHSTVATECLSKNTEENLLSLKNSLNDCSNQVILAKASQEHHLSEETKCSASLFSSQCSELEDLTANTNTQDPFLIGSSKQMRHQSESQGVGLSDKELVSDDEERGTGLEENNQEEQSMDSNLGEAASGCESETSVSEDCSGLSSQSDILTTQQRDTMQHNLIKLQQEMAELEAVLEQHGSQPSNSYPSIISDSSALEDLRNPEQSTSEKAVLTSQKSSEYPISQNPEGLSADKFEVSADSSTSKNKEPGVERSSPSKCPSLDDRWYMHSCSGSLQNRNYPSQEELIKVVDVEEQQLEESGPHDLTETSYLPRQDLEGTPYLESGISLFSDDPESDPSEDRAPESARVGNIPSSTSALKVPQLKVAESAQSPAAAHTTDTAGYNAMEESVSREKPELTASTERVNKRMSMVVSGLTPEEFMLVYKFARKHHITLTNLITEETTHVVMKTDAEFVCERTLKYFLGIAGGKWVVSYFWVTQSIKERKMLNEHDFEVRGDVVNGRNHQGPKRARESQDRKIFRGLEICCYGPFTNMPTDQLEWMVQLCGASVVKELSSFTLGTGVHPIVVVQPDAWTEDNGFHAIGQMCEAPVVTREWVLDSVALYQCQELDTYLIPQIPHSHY

| effect of a mutation on the interaction | Variant |
| --- | --- |
| with no effect | K1249R |
| with no effect | K1249Q |
